From paper PMC3317646, “Interaction of Chandipura Virus N and P Proteins: Identification of Two Mutually Exclusive Domains of N Involved in Interaction with P” (PLoS ONE, 2012)

What was measured:
Conditions in all cases: both partners purified
[1] = target: T1, N(1–320), bacterially expressed (Chandipura virus, UniProt P11211 1-320); assay: pull-down; His-tag co-elution after 1% DOC treatment of the N variants and dialysis against the binding buffer in presence of His-P (N variants monomeric); Ni-NTA agarose, eluted with 250 mM imidazole
T1 construct: Chandipura virus nucleocapsid protein N, residues 1-320; also called N(1–320)^0 (monomer after DOC treatment); source: E. coli BL21(DE3) or BL21(DE3)pLysS, purified (anion exchange, MonoQ 5/50 GL)
T1 sequence: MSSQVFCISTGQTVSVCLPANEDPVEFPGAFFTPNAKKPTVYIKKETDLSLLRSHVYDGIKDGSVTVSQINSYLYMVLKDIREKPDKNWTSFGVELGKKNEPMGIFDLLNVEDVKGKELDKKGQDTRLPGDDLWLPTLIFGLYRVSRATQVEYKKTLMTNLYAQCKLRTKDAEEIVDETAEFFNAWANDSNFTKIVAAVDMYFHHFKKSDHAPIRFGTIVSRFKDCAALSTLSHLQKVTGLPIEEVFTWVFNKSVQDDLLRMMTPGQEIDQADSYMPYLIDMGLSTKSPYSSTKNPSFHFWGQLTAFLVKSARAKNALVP

[2] = target: T2, N(1/180–265/422), bacterially expressed (Chandipura virus, UniProt P11211 1-422, N(1/180–265/422)); assay: as above
T2 construct: also called middle deletant; source: E. coli BL21(DE3) or BL21(DE3)pLysS, purified (anion exchange, MonoQ 5/50 GL)
T2 sequence: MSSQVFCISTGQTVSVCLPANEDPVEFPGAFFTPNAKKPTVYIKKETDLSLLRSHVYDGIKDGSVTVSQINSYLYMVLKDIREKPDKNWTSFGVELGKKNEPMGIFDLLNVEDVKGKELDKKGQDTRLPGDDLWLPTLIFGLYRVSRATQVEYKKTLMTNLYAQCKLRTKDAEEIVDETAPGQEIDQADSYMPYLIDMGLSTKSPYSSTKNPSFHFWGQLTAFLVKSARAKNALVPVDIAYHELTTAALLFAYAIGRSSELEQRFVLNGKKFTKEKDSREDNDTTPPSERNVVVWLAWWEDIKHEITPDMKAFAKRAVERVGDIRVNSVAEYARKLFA

[3] = target: T3, N(22–422), bacterially expressed (Chandipura virus, UniProt P11211 22-422); assay: pull-down; His-tag co-elution: N proteins not treated with DOC incubated with 6×His-P in 50 mM Tris-Cl pH 8, 100 mM NaCl, 0.1% Triton X-100, 10 mM imidazole, 30 min at 4°C; bound to Ni-NTA agarose, eluted with 250 mM imidazole
T3 construct: source: E. coli BL21(DE3) or BL21(DE3)pLysS, purified (anion exchange, MonoQ 5/50 GL)
T3 sequence: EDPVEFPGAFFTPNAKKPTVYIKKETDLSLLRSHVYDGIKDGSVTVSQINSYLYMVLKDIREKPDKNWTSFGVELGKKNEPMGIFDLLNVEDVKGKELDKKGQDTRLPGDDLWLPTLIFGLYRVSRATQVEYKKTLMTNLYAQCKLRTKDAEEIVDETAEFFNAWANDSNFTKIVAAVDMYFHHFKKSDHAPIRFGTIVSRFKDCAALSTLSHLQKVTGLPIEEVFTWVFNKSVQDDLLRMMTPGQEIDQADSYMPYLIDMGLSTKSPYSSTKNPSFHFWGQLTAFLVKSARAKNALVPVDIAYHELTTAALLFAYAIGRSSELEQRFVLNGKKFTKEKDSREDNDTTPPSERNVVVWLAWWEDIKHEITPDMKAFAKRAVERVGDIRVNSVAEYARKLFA

[4] = target: T4, Chandipura virus nucleocapsid protein (N), wild-type, untagged, bacterially expressed (Chandipura virus, UniProt P11211 1-422); assay: as above
T4 construct: Chandipura virus nucleocapsid protein N, full-length untagged (pET3a-NC); Oligomeric (nucleocapsid-like rings) as purified; monomeric after 1% DOC; also called CHPV N; wild-type N
T4 sequence: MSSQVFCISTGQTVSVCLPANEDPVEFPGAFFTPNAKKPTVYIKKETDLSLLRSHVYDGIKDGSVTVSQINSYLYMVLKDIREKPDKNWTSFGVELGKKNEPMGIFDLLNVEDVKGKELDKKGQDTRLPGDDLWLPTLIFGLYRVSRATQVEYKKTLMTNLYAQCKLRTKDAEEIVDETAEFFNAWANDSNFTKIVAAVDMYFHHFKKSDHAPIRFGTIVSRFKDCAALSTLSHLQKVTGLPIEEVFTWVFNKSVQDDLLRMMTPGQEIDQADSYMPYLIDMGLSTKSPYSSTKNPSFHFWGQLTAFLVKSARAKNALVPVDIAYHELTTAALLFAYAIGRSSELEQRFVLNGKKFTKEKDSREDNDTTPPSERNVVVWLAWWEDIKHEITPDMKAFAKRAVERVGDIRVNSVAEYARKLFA

[5] = target: T5, N(1–390), bacterially expressed (Chandipura virus, UniProt P11211 1-390); assay: as above
T5 construct: Chandipura virus nucleocapsid protein N, residues 1-390; source: E. coli BL21(DE3) or BL21(DE3)pLysS, purified (anion exchange, MonoQ 5/50 GL)
T5 sequence: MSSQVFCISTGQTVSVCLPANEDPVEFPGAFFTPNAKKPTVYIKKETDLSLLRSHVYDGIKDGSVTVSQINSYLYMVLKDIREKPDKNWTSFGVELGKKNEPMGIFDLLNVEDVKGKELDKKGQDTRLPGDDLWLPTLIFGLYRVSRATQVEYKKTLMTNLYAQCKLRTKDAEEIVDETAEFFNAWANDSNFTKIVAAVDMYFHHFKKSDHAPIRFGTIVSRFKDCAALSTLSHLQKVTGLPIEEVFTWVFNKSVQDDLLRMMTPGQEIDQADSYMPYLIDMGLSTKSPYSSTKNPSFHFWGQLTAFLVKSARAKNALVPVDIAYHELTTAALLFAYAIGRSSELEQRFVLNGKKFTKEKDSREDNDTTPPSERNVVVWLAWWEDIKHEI

[6] = target: T6, N(48–422), bacterially expressed (Chandipura virus, UniProt P11211 48-422); assay: as above
T6 construct: source: E. coli BL21(DE3) or BL21(DE3)pLysS, purified (anion exchange, MonoQ 5/50 GL)
T6 sequence: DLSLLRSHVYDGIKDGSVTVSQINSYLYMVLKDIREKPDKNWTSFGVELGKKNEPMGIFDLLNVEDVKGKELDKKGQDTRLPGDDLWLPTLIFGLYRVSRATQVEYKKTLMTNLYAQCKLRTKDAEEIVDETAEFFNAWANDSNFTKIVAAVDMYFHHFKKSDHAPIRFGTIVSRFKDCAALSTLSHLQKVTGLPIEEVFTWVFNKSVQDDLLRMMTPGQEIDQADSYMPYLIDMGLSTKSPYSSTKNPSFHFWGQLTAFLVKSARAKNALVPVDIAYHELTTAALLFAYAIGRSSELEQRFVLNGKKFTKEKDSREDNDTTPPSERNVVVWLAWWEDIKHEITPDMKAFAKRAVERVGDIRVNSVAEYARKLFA

Measured: binding result

B1: N-terminal six histidine tagged P protein of Chandipura virus (His-P) (natural protein)
chain: MEDSQLYQALKNYPKLQDTLDSIENLEDDTKSEPSECGSPTERGIPSYYLAEELDECEEEDSEEDDDNLPTEIPDPPTVDMLEAIMEDEIDDTAYQVHFEAKQTWKPVIETGGNERGKFTLSVPQNLSALQLLQWETGIHALAERLGGCRLLQISTRGTRDGIEFTVRETPCVSPASDPIPSTSRSSSIASNVSTRQTESPGSKSNTSLGIPEAPANLIDMGAIDKEFILAAISPSDPPYKNTLRNLFGSGDSFEQYNQTGIYSLKELVIAGLKRKGIYNRIRIRCHLEPQFN
notes: Chandipura virus phosphoprotein P, full length (pET20b-P); pET20b usually adds a C-terminal His tag (surmise); also called 6×His-P; pET20b-P; source: bacterially expressed, purified (Ni-NTA agarose); not shown: His6, N-terminal, kept
binds: all assays above
